Earlier results on one substance are cited in paper PMC4964448.

For one data set, the target named is PSGL-1 (Homo sapiens) (UniProt Q14242).
The target of the next data set is MMP9 (Homo sapiens) (UniProt P14780).
Chain of UniProt P14780 (P14780 94-707): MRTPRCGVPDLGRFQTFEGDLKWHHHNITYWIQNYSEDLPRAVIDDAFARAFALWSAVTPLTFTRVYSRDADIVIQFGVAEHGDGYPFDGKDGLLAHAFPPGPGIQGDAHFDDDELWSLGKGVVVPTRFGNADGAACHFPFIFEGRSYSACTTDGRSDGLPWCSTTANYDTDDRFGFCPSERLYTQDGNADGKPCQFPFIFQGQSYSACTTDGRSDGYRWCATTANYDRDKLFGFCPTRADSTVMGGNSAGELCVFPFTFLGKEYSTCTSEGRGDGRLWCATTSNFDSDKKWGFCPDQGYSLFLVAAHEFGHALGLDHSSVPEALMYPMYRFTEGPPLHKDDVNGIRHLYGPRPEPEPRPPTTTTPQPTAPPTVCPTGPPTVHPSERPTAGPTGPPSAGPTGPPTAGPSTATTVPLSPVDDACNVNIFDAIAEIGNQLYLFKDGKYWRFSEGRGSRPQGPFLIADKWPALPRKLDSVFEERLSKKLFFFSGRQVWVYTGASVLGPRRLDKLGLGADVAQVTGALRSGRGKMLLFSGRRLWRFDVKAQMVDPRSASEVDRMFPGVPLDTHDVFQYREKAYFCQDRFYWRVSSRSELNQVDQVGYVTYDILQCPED

Chain of UniProt Q14242 (Q14242 42-320): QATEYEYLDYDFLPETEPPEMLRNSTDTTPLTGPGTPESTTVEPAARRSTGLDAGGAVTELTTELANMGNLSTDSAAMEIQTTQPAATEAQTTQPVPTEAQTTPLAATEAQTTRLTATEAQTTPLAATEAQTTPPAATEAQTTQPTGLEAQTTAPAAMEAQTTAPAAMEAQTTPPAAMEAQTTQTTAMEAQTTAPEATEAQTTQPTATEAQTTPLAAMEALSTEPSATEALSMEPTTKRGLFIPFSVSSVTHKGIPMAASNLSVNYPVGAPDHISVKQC

Consider SSL5 (from UniProt Q2G1S6), for which the Kd is 820 nM in the data set with PSGL-1 (Homo sapiens) and 1.9 nM with MMP9 (Homo sapiens).

Usually Kd stands for the free concentration of one partner at which half of the binding sites on the other are occupied at equilibrium, for simple one-to-one binding.
